Molecular target: DyLight488-METTL14 (UniProt Q9HCE5)
Experiment: MST

Chain of UniProt Q9HCE5 (Q9HCE5 whole entry): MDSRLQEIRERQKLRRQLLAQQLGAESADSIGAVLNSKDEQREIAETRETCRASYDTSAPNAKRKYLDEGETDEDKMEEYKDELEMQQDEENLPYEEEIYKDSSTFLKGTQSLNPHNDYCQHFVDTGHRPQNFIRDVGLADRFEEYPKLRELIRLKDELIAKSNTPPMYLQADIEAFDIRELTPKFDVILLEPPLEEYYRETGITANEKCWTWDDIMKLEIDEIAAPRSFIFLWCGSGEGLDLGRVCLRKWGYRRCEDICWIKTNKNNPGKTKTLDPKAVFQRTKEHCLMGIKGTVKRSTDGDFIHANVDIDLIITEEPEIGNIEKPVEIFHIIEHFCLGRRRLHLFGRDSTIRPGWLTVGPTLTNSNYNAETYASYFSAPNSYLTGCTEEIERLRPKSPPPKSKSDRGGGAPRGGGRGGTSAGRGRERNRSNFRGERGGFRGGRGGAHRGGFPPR

Kd: 1.86 µM
Substance: full length H3K36me3 (from UniProt P68431 1-136) (natural protein)

— publication PMC6438714
